One molecule from US20060141569A1 (published 2006) can be followed below.

Experiment [1] addresses T1, C5aR transfected into CHEM-1 cells using the pHS vector (UniProt P21730 1-350).
T1 chain: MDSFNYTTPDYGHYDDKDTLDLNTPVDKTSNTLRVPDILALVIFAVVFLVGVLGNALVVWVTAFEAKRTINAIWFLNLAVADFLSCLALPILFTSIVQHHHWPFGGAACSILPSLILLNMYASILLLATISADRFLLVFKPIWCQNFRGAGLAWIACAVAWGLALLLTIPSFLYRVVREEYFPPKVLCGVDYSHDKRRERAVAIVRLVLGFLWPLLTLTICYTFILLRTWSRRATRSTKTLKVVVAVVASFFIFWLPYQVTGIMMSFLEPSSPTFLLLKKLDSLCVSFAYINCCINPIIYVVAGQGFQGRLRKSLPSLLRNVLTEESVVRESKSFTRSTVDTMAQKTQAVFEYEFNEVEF
Kind of experiment: binding.

The target in experiment [2] is C5aR+Gα15/CHO. In words: binding; two sites, site 1.
In experiment [3] the target is C5aR+Gα15/CHO. Kind of experiment: binding; two sites, site 2.

B1: C5a (ligand)
chain: TLQKKIEEIAAKYKHSVVKKCCYDGACVNNDETCEQRAARISLGPRCIKAFTECCVVASQLRANISHKDMQLGR
Take B1: the values for the Ki (in experiment [1]; in the experiment with C5aR+Gα15/CHO [2]; in the experiment with C5aR+Gα15/CHO [3]) were 0.5 nM, 0.6 nM and 34 nM, respectively.
